# T1: MapADO (Moesziomyces aphidis, UniProt W3VHW6)
# T1 construct: gene PaG_05861
# T1 sequence (W3VHW6 2-548): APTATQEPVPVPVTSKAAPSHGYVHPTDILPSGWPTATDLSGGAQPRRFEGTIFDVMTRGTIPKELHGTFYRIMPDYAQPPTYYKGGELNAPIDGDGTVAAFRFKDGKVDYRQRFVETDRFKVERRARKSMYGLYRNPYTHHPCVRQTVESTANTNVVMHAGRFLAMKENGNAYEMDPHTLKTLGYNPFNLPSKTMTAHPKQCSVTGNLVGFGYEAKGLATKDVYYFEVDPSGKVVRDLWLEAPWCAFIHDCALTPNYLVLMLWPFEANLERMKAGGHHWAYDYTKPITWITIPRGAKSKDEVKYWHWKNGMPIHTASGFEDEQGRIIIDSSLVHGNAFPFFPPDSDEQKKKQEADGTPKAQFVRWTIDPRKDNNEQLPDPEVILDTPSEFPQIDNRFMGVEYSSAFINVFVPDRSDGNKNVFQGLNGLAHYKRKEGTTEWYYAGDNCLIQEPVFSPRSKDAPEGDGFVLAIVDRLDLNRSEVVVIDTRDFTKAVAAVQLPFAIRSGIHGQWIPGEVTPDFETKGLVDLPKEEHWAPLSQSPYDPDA
# Experiments:
# [1] = molecular target: T1, MapADO; test: X-ray crystal structure (cocrystallization); format: binding; details: 40-fold molar excess ligand; front pocket at Fe2+
# [2] = molecular target: T1, MapADO; test: inhibition of isoeugenol conversion; format: cell-based; details: equimolar to isoeugenol; enzyme preparation not stated in main text
# [3] = molecular target: T1, MapADO; test: inhibition of isoeugenol conversion; format: cell-based; details: equimolar to isoeugenol; enzyme preparation not stated in main text; suggested competitive
# [4] = substrate: CC=Cc1ccc(O)c(OC)c1; test: spectrophotometric monitoring of vanillin formation; format: biochemical, Thermothelomyces thermophilus; details: co-substrate O2; Fe2+ enzyme
# Source text: spectrophotometric monitoring of vanillin formation on ADO (TtCCO)
# [5] = substrate: CC=Cc1ccc(O)c(OC)c1; test: as above; format: biochemical, Moesziomyces aphidis; details: co-substrate O2; Fe2+ enzyme
# Source text: spectrophotometric monitoring of vanillin formation on MapADO
molecule,measurement,setting,value
"O=Cc1ccc(O)cc1 [compound 3, 4-hydroxybenzaldehyde]",X-ray crystal structure (cocrystallization),[1],The 3-bound structure (PDB ID: 9G8A) shows similar hydrophobic interactions and hydrogen bonds
"COc1cc(C=O)ccc1O [compound 1, vanillin]",% reduction of 1a conversion,[2],60%
same,X-ray crystal structure (cocrystallization),[1],"In the 1-bound structure (PDB ID: 9G89), interactions include hydrophobic contacts"
"COc1cccc(C=O)c1O [compound 5, ortho-vanillin]",% inhibition,[3],25%
"ADO (TtCCO) (Thermothelomyces thermophilus ATCC 42464) (protein, purified recombinant; construct details not given; genus given only as T) MAHIHDLAPEVSNYSSGRLTPPTPVRFPRTPVFASMNKPCRFEGDVFDLEVSGAIPPDIDGTFFRVQPDHRFPPLFEDDIHFNGDGSVTAIRISGGHADLRQRYVRTERYLLETRARRSLFGRYRNPWTDNESVRGVIRTASNTNVVFWRGALLAMKEDGPPFAMDPVTLETLGRYDFEGQILSPTFTAHPKIDPDTGEMVCFAYEAGGDGSDCSVDVAVWTVDADGKKVEECWYKAPFAGMIHDCGITKNWVVLPLTPIKMDLERMKRGGNKFAWDPSEDQWYGVVPRRGAKSDDIIWFRADNGFHGHVAGCYELPSGEIVFDLTVADGNVFFFFPPDDNITPPADGVAKRNRLSSPTVRWIFDPKAKKSAIRTEAAGDADIWVADERVKPALTWPTNGEFSRIDDRYVTKPYRHFWQAVVDPTRPYDFEKCGPPAGGLFNCLGHYTWSDQNYHHGHNTGDPSGDGRSNGSAEEATAGKFGLQDVYFAGPTMTFQEPTFIPRQGAAEGEGYLIALLNHLDELRNDVVIFEARNLGKGPLAVIHLPLKLKLGLHGNWVDSREIEAWRRRRAENGDVGPLRVAKEPLPWQKKFAAAAQNGSNGV",Km,[4],2240 ± 264 µM
same,Vmax,[4],43 µmol/min/mg
same,kcat,[4],44 s⁻¹
MapADO (Moesziomyces aphidis) (protein) APTATQEPVPVPVTSKAAPSHGYVHPTDILPSGWPTATDLSGGAQPRRFEGTIFDVMTRGTIPKELHGTFYRIMPDYAQPPTYYKGGELNAPIDGDGTVAAFRFKDGKVDYRQRFVETDRFKVERRARKSMYGLYRNPYTHHPCVRQTVESTANTNVVMHAGRFLAMKENGNAYEMDPHTLKTLGYNPFNLPSKTMTAHPKQCSVTGNLVGFGYEAKGLATKDVYYFEVDPSGKVVRDLWLEAPWCAFIHDCALTPNYLVLMLWPFEANLERMKAGGHHWAYDYTKPITWITIPRGAKSKDEVKYWHWKNGMPIHTASGFEDEQGRIIIDSSLVHGNAFPFFPPDSDEQKKKQEADGTPKAQFVRWTIDPRKDNNEQLPDPEVILDTPSEFPQIDNRFMGVEYSSAFINVFVPDRSDGNKNVFQGLNGLAHYKRKEGTTEWYYAGDNCLIQEPVFSPRSKDAPEGDGFVLAIVDRLDLNRSEVVVIDTRDFTKAVAAVQLPFAIRSGIHGQWIPGEVTPDFETKGLVDLPKEEHWAPLSQSPYDPDA,Km,[5],118 ± 13 µM
same,Vmax,[5],231 µmol/min/mg
same,kcat,[5],238 s⁻¹

# From PMC12308385, “Structural and Functional Characteristics of Potent Dioxygenase from Moesziomyces aphidis” (JACS Au, 2025)
